# Ends that are not written are not given here.
# T1: His-tagged P3028 (PGE73) (human, also: His tag, length and end not given here)
# T1 construct: the tag is put first here only for want of a statement; also called His-tag-P3028; not shown: His tag
# T1 peptide: VFDEFKPLVEEPQNLIK
# Molecular target: T1, His-tagged P3028 (PGE73)
# Assay: PEPSCAN ELISA: peptide on chip, His-tagged P3028 in solution, anti-His mAb and rampo conjugate
row,Binder,rampo value [rampo units]
1,KKLDTFFVKLSLQTER (on PEPSCAN card; also called P28R with Q in position 13) [SEQ ID NO 23],> 800
2,KKLDTFFVKLSLHTER (on PEPSCAN card; also called P28R with H in position 13) [SEQ ID NO 24],> 800
3,KKLDTFFVKLSLNTER (on PEPSCAN card; also called P28R with N in position 13) [SEQ ID NO 25],> 800
